Reference: article PMC5758809

What was measured:
recombinant PP1 = recombinant PP1 (UniProt P62139)
native PP1 (rabbit) = native PP1 (rabbit) (UniProt P62139)

Chain of UniProt P62139 (P62139 whole entry): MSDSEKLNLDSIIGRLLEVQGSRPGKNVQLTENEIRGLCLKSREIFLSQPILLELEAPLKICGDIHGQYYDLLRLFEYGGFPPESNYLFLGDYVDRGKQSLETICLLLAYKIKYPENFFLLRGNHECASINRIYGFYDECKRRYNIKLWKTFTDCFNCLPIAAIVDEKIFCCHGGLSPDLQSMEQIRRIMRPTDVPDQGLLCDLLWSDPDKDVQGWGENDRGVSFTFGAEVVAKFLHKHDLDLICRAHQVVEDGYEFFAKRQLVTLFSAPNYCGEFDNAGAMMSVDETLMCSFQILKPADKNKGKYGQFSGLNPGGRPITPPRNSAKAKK

IC50 for inhibition of recombinant PP1 phosphatase activity ([32P]phosphorylase a as substrate) (recombinant PP1) [nM]	IC50 for inhibition of native PP1 phosphatase activity ([32P]phosphorylase a as substrate) (native PP1 (rabbit)) [nM]	Binder
980	19	PKA-thiophosphorylated form of inhibitor-1 (natural protein, thiophosphorylated Thr35) MEQDNSPRKIQFTVPLLEPHLDPEAAEQIRRRRPTPATLVLTSDQSSPEIDEDRIPNPHLKSTLAMSPRQRKKMTRITPTMKELQMMVEHHLGQQQQGEEPEGAAESTGTQESRPPGIPDTEVESRLGTSGTAKKTAECIPKTHERGSKEPSTKEPSTHIPPLDSKGANSV
553	240	PKA-thiophosphorylated form of inhibitor-1[I10A;F12A] (natural protein, thiophosphorylated Thr35) MEQDNSPRKAQATVPLLEPHLDPEAAEQIRRRRPTPATLVLTSDQSSPEIDEDRIPNPHLKSTLAMSPRQRKKMTRITPTMKELQMMVEHHLGQQQQGEEPEGAAESTGTQESRPPGIPDTEVESRLGTSGTAKKTAECIPKTHERGSKEPSTKEPSTHIPPLDSKGANSV
